Values of other authors as cited in publication PMC4618177.
Where two headings read alike, the source gives them in different places.

Legend:
[1] = target: ARF5 PB1 (Arabidopsis thaliana) (UniProt P93024)
[2] = target: IAA17 PB1 (Arabidopsis thaliana) (UniProt P93830)
[3] = target: IAA17 PB1 (Arabidopsis thaliana) (UniProt P93830); remark: listed apart in the source

## ARF5 PB1 (from UniProt P93024)
[1]
  Kd: 860 nM
[2]
  Kd: 73 nM

## IAA17 PB1 (from UniProt P93830)
[3]
  Kd: 6600 nM
